Data from patent US20040019193A1, “Mob-5/hmob-5 as a cancer diagnostic marker” (priority 2002, published 2004).

B1: Mob-5-AP: rat Mob-5-alkaline phosphatase fusion protein, secreted, 90 KD (SEQ ID NO: 8) (protein)
chain: MQTSLRQQILPGLSLILLVLNQVPELQGQEFRFGPCQVTGVVLPELWEAFWTVKNTVKTQDELTSVRLLKPQVLQNVSDAESCYLAHSLLKFYLNTVFKNYHSKIVKFKVLKSFSTLANNFLVIMSKLQPSKDNAMLPISDSARRRFLLYHRTFKQLDIEVALAKAFGEVDILLAWMQNFYQLGSSGIIPVEEENPDFWNREAAEALGAAKKLQPAQTAAKNLIIFLGDGMGVSTVTAARILKGQKKDKLGPEIPLAMDRFPYVALSKTYNVDKHVPDSGATATAYLCGVKGNFQTIGLSAAARFNQCNTTRGNEVISVMNRAKKAGKSVGVVTTTRVQHASPAGTYAHTVNRNWYSDADVPASARQEGCQDIATQLISNMDIDVILGGGRKYMFPMGTPDPEYPDDYSQGGTRLDGKNLVQEWLAKRQGARYVWNRTELMQASLDPSVTHLMGLFEPGDMKYEIHRDSTLDPSLMEMTEAALRLLSRNPRGFFLFVEGGRIDHGHHESRAYRALTETIMFDDAIERAGQLTSEEDTLSLVTADHSHVFSFGGYPLRGSSIFGLAPGKARDRKAYTVLLYGNGPGYVLKDGARPDVTESESGSPEYRQQSAVPLDEETHAGEDVAVFARGPQAHLVHGVQEQTFIAHVMAFAACLEPYTACDLAPPAGTTDAAHPG

Assays:
mob-5 = test: Differential display of Rat-1(ras) cells with or without PD98059; assay type: cell-based; conditions: 10 μM for 24 hours
Protocol: (B) Identification of mob-5 as a gene activated by oncogenic h-ras but inactivated by MAP kinase inhibitor, PD98059. Total cellular RNA from the normal Rat-1 cells and their oncogenic h-ras transformed derivatives Rat-1(ras) treated with or without 10 μM of PD98059 for 24 hours were compared by differential display. The same primer combination as used in (A) identified the mob-5 (arrow) again as a candidate gene activated by ras but inhibited by ras downstream MAP kinase inhibitor.
RNA purification, automated differential display screening and Northern blot analysis Total RNA from cells were purified using the RNApure reagent following the manufacture instruction (GenHunter Corp., Nashville, Tenn.). DNase I treatment of RNA prior to differential display was carried out using the MessageClean kit (GenHunter Corp., Nashville, Tenn.). Differential display PCR reactions were setup in 96-well PCR plates (Perkin-Elmer) by the Beckman Biomek 2000 automated liquid dispensing workstation using one-base anchored oligo-dT primers and rationally designed arbitrary 13mers (Liang et al., 1994b) from the RNAimage kits (GenHunter Corp., Nashville, Tenn.). The cDNAs were amplified in the presence of ^33P [(α-dATP] (New England Nuclear, Boston, Mass.) using Taq DNA polymerase (Qiagene) and separated on 6 % denaturing polyacrylamide gels (National Diagnostic, Atlanta, Ga.). […]

[1] = test system: putative Mob-5 receptor on the cell surface of h-ras transformed RIE cells; test: AP fusion protein receptor binding assay on RIE cells before and after h-ras transformation; set-up: species or system rat; conditions: normal versus h-ras transformed RIE cells, media at 0.7 unit/ml
Protocol: (E) Mob-5-AP, but not hMob-5-AP, binds specifically to the cell surface of oncogenic h-ras transformed RIE cells. Both the normal and oncogenic h-ras transformed RIE cells were analyzed for the ability to bind Mob-5-AP versus AP alone. The same experiment was carried out with hMob-5-AP and AP alone. The cell surface bound AP activity was measured to reveal a species specific Mob-5 binding activity present only on the cell surface of the h-ras transformed RIE cells. The result is representative of at least 3 independent experiments.
As in Rat-1 cells, the putative Mob-5 receptor was also found to be differentially expressed between the normal and h-ras transformed RIE cells using Mob-5-AP fusion protein as a ligand (FIG. 4E, left panel). To determine whether hMob-5-AP could also differentially bind to the cell surface of h-ras transformed RIE cells, the receptor binding assay was conducted using hMob-5-AP in place of Mob-5-AP.
mob-5 expression is activated by both oncogenic h-ras and k-ras in intestinal epithelial cells Cancer arises from the epithelial cells rather than fibroblasts and K-ras mutations have been tightly linked with cancers of gastric intestinal origins (Kiaris and Spandidos, 1995). […] After the final 5 min extension at 72 ° C., the RT-PCR products were analyzed on a 1.5 % agarose gel. […]

[2] = test system: putative Mob-5 receptor on the cell surface of h-ras transformed Rat-1 cells; test: Mob-5-AP receptor binding assay on Rat-1 cells before and after h-ras transformation; conditions: normal versus h-ras transformed Rat-1 cells, media at 0.7 unit/ml
Protocol: Both the normal and oncogenic h-ras transformed Rat-1 cells were analyzed for the ability to bind Mob-5-AP versus AP alone. The cell surface bound AP activity was measured to reveal a Mob-5 mediated-binding activity present only on the cell surface of the h-ras transformed cells. The result is representative of at least 5 independent experiments.
Identification of a putative receptor(s) of Mob-5 on the cell surface of h-ras transformed cells Another possible mechanism for Mob-5 function is that Mob-5 acts as an autocrine growth factor downstream of activated Ras. Ras transformed RIE cells can be used in a receptor binding assay. APtag technology (Flanagan and leder, 1990) was employed to create a Mob-5-alkaline phosphatase (AP) fusion protein, which can be used as an affinity agent for the receptor analysis. This strategy has been successfully used to identify and clone a number of important cell surface receptors, including those of leptin (Tartaglia et al., 1995) and semaphorin III (He and Tessier-Lavigne, 1997). Like Mob-5 itself, Mob-5-AP was secreted at high levels in 293T cells stably transfected with the recombinant plasmid. The secreted 90 KD Mob-5-AP can be readily detected from the culture media by either the alkaline phosphatase assay or direct Western blot analysis using anti-Mob-5 antibody (FIG. 4A). […]

Molecule | mob-5 expression (differential display) (mob-5) | cell surface binding (bound AP activity) versus AP alone [1] | cell surface binding (bound AP activity) versus AP alone [2]
COc1cccc(-c2cc(=O)c3ccccc3o2)c1N [PD98059] | inactivated |  | 
B1 |  | binds specifically only to the ras transformed RIE cells | preferentially bound to the cell surface of the h-ras transformed Rat-1 cells, but not of the parental control
